In US20130136748A1 (Ablynx, published 2013):
Where a chain is given by its changes, count along the chain named. Numbers in names are those of the source. Where “and” joins values, the source holds several entries; their conditions need not be identical. Identical values can stand only once.

T1: Chicken Her3 (AA1-25 human, AA26-642 chicken) (chicken (human signal sequence))
T1 construct: Transmembrane and extracellular regions only, on transiently transfected HEK293 cells; also called full length extracellular chicken HER3
T1 chain: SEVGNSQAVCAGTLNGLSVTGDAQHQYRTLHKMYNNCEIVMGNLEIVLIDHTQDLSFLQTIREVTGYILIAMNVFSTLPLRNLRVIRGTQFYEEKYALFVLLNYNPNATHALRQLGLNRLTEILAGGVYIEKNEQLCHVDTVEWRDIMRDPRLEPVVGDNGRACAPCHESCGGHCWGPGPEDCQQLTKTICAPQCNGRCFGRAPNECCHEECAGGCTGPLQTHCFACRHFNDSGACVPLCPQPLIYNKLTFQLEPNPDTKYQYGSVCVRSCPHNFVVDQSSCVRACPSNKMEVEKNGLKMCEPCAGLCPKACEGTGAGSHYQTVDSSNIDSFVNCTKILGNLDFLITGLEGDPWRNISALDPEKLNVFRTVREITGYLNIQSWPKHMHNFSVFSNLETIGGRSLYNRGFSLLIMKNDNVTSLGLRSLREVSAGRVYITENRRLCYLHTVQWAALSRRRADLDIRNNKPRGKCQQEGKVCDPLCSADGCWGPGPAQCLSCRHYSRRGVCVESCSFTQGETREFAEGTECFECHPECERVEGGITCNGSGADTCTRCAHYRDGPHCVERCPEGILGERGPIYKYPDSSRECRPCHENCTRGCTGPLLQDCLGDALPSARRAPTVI

T2: cHER3ECD (Maccaca fascicularis HER3 extracellular domain) (Macaca fascicularis, UniProt P21860 20-643 (human entry))
T2 construct: also called cyno HER3ECD; cyno HER3-ECD
T2 chain: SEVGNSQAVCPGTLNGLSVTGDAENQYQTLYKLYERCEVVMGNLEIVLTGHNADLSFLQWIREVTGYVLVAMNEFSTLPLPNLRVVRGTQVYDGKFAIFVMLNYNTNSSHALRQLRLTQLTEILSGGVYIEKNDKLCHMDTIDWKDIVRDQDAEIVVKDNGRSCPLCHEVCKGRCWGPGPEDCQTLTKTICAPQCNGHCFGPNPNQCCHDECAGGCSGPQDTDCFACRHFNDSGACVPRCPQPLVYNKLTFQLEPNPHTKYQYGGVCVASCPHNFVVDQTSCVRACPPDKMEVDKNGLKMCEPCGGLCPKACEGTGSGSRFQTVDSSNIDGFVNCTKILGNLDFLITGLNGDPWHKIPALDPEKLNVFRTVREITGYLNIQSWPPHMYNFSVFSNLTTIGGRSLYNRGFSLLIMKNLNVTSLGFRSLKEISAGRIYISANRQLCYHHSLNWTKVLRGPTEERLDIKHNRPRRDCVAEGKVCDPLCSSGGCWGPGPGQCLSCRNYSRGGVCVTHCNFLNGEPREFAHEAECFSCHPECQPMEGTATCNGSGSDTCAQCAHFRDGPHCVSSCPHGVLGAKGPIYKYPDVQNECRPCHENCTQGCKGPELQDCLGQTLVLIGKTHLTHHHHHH

B1: HER3MS0050 (VHH)
VHH: EVQLVESGGGLVQPGGSLRLSCAASGTLFKINAMGWYRQAPGKRRELVALITSSDTTDYAESVEGRFTISRDNTWNAVYLQMNSLRPEDTAVYYCHSDHYSMGVPEKRVIMYGQGTLVTVSS
notes: Kabat numbering; also called 18G11 basic variant
B2: 21F06 (VHH)
VHH: EVQLVESGGGLVQAGGSLRLSCAASGRTYYLNAMGWFRQGPGKDREFVAAIDWSDGNKDYADSVKGRFTISRDNAKNTVYLQMNSLKPEDTAVYYCAADTPPWGPMIYIESYDSWGQGTQVTVSS
notes: c-myc, His6-tagged form as expressed; also called 21F6; HER3MS21F06
B3: HER3MS00049 (VHH)
VHH: B2 VHH with A14P, G40A, D44E, A75S, K87R, Q120L
notes: 21F06 basic + G40A + D44E; also called HER3MS0049
B4: HER3MS00125 (VHH)
VHH: B1 VHH with R44Q, S62D, E64K, T74S, A77T, M102L, M111L
notes: 18G11 second round variant with R44Q
B5: HER3MS00211 (VHH)
VHH: B1 VHH with E61D, E64K, T74S, A77T, M102L, M111L
notes: 18G11 second round variant without R44Q (selected)
B6: 21B02 (VHH)
VHH: EVQLVESGGGLVQPGGSLRLSCAASGFTFDYYTIGWFRQAPGKEREGVSCISSRDGDSYYADSVKGRFTISRDNAKNTAYLQMNSLKPEDTAVYYCAASASDYGLGLELFHDEYNYWGQGTQVTVSS
B7: 23F05 (VHH)
VHH: EVQLVESGGGLVQAGGSLRLSCAASGFTFDGYAIGWFRQAPGKEREGVSCISGGDGRSYYADSVKGRFTVSSDNAKNTLYLEMNSLKPEDTAVYYCAVIWGPYCSDSYEYLYEYDYWGQGTQVTVSS

What was measured:
[1] = biological target: T3, human HER3-Fc (R&D Systems, 348-RB) (human, UniProt P21860 20-643); assay: alphascreen, competitor biotinylated 18G11
T3 construct: Bought; also called hHER3-Fc; Fc-HER3; Fc part of the bought chimera not given, not described

[2] = biological target: T4, hHER3 ECD (human HER3 extracellular domain) (human, UniProt P21860 20-643); assay: ELISA, coated hHER3-ECD
T4 construct: also called recombinant HER3-ECD

[3] = biological target: T5, human HER2 (human, UniProt P04626 23-1255); assay: FACS CHO-HER2, 2000 nM
T5 construct: also called hHER2

[4] = biological target: T6, hHER3 full length (human, UniProt P21860 20-1342); assay: FACS, 400 nM, competitor 21B02-biotin
T6 construct: On transfected CHO, CHO HER2/HER3, CHO EGFR/HER3 or CHO Flp-In cells; endogenous HER3 of MCF-7 and MDA-MB468 cells in the signalling assays; also called human HER3

[5] = biological target: T6, hHER3 full length; assay: FACS, 400 nM, competitor 04F10-biotin
[6] = biological target: T6, hHER3 full length; assay: cell-based or functional assay
[7] = biological target: T5, human HER2; assay: FACS CHO-HER2, 667 nM
[8] = biological target: T7, human HER4 (human, UniProt Q15303 26-1308); assay: FACS CHO-HER4, 222 nM
T7 sequence (Q15303 26-1308 limits assumed): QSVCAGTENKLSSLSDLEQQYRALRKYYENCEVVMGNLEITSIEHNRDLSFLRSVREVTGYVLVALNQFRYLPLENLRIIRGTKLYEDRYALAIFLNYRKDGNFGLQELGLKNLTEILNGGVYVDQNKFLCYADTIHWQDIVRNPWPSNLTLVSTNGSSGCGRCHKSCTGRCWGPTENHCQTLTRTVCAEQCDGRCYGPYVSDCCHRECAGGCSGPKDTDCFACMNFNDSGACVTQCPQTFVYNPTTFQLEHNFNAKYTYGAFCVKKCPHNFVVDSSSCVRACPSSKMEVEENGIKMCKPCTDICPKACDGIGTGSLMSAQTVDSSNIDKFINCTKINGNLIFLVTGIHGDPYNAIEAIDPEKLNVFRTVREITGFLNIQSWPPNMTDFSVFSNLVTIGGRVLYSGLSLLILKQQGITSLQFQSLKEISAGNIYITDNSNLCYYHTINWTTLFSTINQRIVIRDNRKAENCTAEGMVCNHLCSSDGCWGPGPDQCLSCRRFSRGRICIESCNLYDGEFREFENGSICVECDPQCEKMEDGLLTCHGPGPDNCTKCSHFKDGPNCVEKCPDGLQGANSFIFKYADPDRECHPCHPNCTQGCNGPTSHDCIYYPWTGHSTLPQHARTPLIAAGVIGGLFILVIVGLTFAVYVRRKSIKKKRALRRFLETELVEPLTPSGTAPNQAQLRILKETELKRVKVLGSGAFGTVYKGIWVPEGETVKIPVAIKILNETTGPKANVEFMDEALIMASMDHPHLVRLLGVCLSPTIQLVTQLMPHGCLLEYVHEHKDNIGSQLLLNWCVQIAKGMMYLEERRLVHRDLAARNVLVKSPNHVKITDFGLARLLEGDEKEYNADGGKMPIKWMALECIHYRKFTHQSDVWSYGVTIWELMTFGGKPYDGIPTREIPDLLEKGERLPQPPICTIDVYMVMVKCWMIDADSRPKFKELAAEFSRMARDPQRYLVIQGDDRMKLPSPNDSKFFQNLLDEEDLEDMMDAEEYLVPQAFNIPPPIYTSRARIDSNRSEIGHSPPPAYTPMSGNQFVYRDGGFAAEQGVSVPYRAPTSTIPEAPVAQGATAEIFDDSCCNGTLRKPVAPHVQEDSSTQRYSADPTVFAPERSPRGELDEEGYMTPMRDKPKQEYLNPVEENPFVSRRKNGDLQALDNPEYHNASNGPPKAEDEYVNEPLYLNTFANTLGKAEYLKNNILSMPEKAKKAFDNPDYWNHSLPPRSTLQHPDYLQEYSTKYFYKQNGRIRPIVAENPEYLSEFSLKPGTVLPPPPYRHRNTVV

[9] = biological target: T1, Chicken Her3 (AA1-25 human, AA26-642 …); assay: FACS, HEK293 with chicken HER3
[10] = biological target: T7, human HER4; assay: FACS CHO-HER4, 2000 nM
[11] = biological target: T2, cHER3ECD (Maccaca fascicularis HER3 …); assay: ELISA, coated cHER3-ECD
[12] = biological target: T7, human HER4; assay: FACS CHO-HER4, 667 nM
[13] = biological target: T8, human HER1 (human, UniProt P00533 25-1210); assay: FACS, CHO-HER1
T8 construct: also called EGFR; ErbB1

[14] = biological target: T6, hHER3 full length; assay: cell-based or functional assay; remark: listed apart in the source
[15] = biological target: T6, hHER3 full length; assay: FACS, 400 nM, competitor 17C08-biotin
[16] = biological target: T3, human HER3-Fc (R&D Systems, 348-RB); assay: HRG competition alphascreen
[17] = biological target: T7, human HER4; assay: FACS, CHO-HER4
[18] = biological target: T3, human HER3-Fc (R&D Systems, 348-RB); assay: HRG competition alphascreen; remark: listed apart in the source
[19] = biological target: T8, human HER1; assay: FACS CHO-HER1, 222 nM
[20] = biological target: T6, hHER3 full length; assay: FACS competition with HRG1-β1-EGF, CHO-HER3
[21] = biological target: T6, hHER3 full length; assay: FACS, 400 nM, competitor 04C07-biotin
[22] = biological target: T8, human HER1; assay: FACS CHO-HER1, 2000 nM
[23] = biological target: T6, hHER3 full length; assay: cell-based or functional assay; remark: listed apart in the source
[24] = biological target: T8, human HER1; assay: FACS CHO-HER1, 667 nM
[25] = biological target: T5, human HER2; assay: FACS, CHO-HER2
[26] = biological target: T5, human HER2; assay: FACS CHO-HER2, 222 nM
[27] = biological target: T6, hHER3 full length; assay: FACS, 400 nM, competitor 23F05-biotin
[28] = biological target: T3, human HER3-Fc (R&D Systems, 348-RB); assay: SPR, HER3-Fc captured by anti-Fc
[29] = biological target: T3, human HER3-Fc (R&D Systems, 348-RB); assay: 18G11 competition alphascreen
[30] = biological target: T4, hHER3 ECD (human HER3 extracellular …); assay: SPR off rate
[31] = biological target: T6, hHER3 full length; assay: cell-based or functional assay; remark: listed apart in the source
[32] = biological target: T6, hHER3 full length; assay: FACS, 400 nM, competitor 18E08-biotin

Binder	EC50 [2]	MCF [3]	% competition [4]	% competition [5]	IC50, HRG1-β1 induced pAkt, MCF-7 [6]	MCF [7]	MCF [8]	binding result [9]	MCF [10]	EC50 [11]	MCF [12]	binding result [13]	IC50, HRG1-β1 induced pHER3, MCF-7 [14]	IC50, HRG1-β1 induced pHER3, MDA-MB468 [14]	% competition [15]	binding result [17]	MCF [19]	IC50 [20]	% competition [21]	MCF [22]	also measured
B1	–	–	–	–	–	–	–	–	–	–	–	–	–	–	–	–	–	–	–	–	IC50 [1]: 3.2 nM
B2	0.3 nM	409	100%	15%	2.31e-08 M	229	149	binds	263	0.32 nM	225	no binding (tested: 2000 nM)	6.79e-09 M	7.94e-09 M	9%	no binding (tested: 2000 nM)	107	10.1 nM	11%	74	IC50, HRG1-β1 induced pERK1/2, MCF-7 [6]: 1.11e-07 M; IC50 [16]: 0.25 nM; % inhibition [18]: 104%; IC50 [18]: 0.0135 nM; IC50 pHER3, HRG1-β1 stimulated MCF7 [23]: 8.74e-09 M; MCF [24]: 110; binding result [25]: no binding (tested: 2000 nM); MCF [26]: 84; % competition [27]: 100%; Kd [28]: 0.12 nM; kon [28]: 1.8e+07 M⁻¹ s⁻¹
B3	–	–	–	–	–	–	–	–	–	–	–	–	–	–	–	–	–	–	–	–	IC50 [16]: 0.25 nM; IC50 pHER3, HRG1-β1 stimulated MCF7 [23]: 2.79e-09 M
B4	–	–	–	–	–	–	–	–	–	–	–	–	–	–	–	–	–	–	–	–	IC50 [29]: 14 nM; koff [30]: 0.0012 s⁻¹
B5	–	–	–	–	–	–	–	–	–	–	–	–	–	–	–	–	–	–	–	–	IC50 [29]: 5.4 nM; IC50 pHER3 blocking, HRG stimulated MCF7 [31]: 1.79e-08 M and 2e-08 M; koff [30]: 0.00072 s⁻¹
B6	1.1 nM	8570	100%	15%	6.9e-08 M	3610	91	binds	273	0.9 nM	119	no binding (tested: 2000 nM)	4.88e-08 M	9.99e-08 M	17%	no binding (tested: 2000 nM)	64	13.3 nM	10%	53	inhibition of HRG1-β1 induced pERK1/2, MCF-7 [6]: < 50 % inhibition; % competition [32]: 20%; MCF [24]: 64; MCF [26]: 1340; % competition [27]: 98%; Kd [28]: 1.22 nM; kon [28]: 2.2e+06 M⁻¹ s⁻¹
B7	0.46 nM	832	100%	15%	4.65e-08 M	264	343	binds	95	0.44 nM	101	no binding (tested: 2000 nM)	1.77e-08 M	2.41e-08 M	8%	no binding (tested: 2000 nM)	153	9.44 nM	6%	67	inhibition of HRG1-β1 induced pERK1/2, MCF-7 [6]: < 50 % inhibition; % competition [32]: 16%; MCF [24]: 67; binding result [25]: no binding (tested: 2000 nM); MCF [26]: 97; % competition [27]: 100%; Kd [28]: 0.99 nM; kon [28]: 3.1e+06 M⁻¹ s⁻¹
